The data set deals with the molecule itself. Kind of data set: crystal structure; phosphate-bound ecGLK, space group P4_(3)2_(1)2; crystals grown in 100 mM Tris-HCl pH 8.5, 200 mM lithium sulfate, 20%(w/v) PEG 5000 MME; data collected at room temperature; molecular replacement with PDB 1q18.

B1: Escherichia coli glucokinase (enzyme, E. coli)
chain: MTKYALVGDVGGTNARLALCDIASGEISQAKTYSGLDYPSLEAVIRVYLEEHKVEVKDGCIAIACPITGDWVAMTNHTWAFSIAEMKKNLGFSHLEIINDFTAVSMAIPMLKKEHLIQFGGAEPVEGKPIAVYGAGTGLGVAHLVHVDKRWVSLPGEGGHVDFAPNSEEEAIILEILRAEIGHVSAERVLSGPGLVNLYRAIVKADNRLPENLKPKDITERALADSCTDCRRALSLFCVIMGRFGGNLALNLGTFGGVFIAGGIVPRFLEFFKASGFRAAFEDKGRFKEYVHDIPVYLIVHDNPGLLGSGAHLRQTLGHIL
notes: Escherichia coli glucokinase (glk gene cloned into pCDF-1b); Expression and purification follow Fatema et al., 2024; also called GLK; ecGLK; source: E. coli BL21 (DE3), purified (Ni-NTA, PD10 desalting)
As for B1, the “stoichiometry N” value worked out at 2.

Values taken from publication PMC12312565, “Crystal structures of Escherichia coli glucokinase and insights into phosphate binding” (Acta Crystallographica Section F: Structural Biology …, 2025).
